Source: patent publication US20030059812

Molecular target: 3H-histones isolated from murine erythroleukemia cells

B1: HDAC9a-FLAG (C-terminal FLAG-tagged HDAC9a, expressed from pFLAG-CMV-5b-HDAC9a, plasmid VR2) (protein)
chain: MHSMISSVDVKSEVPVGLEPISPLDLRTDLRMMMPVVDPVVREKQLQQELLLIQQQQQIQKQLLIAEFQKQHENLTRQHQAQLQEHIKELLAIKQQQELLEKEQKLEQQRQEQEVERHRREQQLPPLRGKDRGRERAVASTEVKQKLQEFLLSKSATKDTPTNGKNHSVSRHPKLWYTAAHHTSLDQSSPPLSGTSPSYKYTLPGAQDAKDDFPLRKTASEPNLKVRSRLKQKVAERRSSPLLRRKDGNVVTSFKKRMFEVTESSVSSSSPGSGPSSPNNGPTGSVTENETSVLPPTPHAEQMVSQQRILIHEDSMNLLSLYTSPSLPNITLGLPAVPSQLNASNSLKEKQKCETQTLRQGVPLPGQYGGSIPASSSHPHVTLEGKPPNSSHQALLQHLLLKEQMRQQKLLVAGGVPLHPQSPLATKERISPGIRGTHKLPRHRPLNRTQSAPLPQSTLAQLVIQQQHQQFLEKQKQYQQQIHMNKLLSKSIEQLKQPGSHLEEAEEELQGDQAMQEDRAPSSGNSTRSDSSACVDDTLGQVGAVKVKEEPVDSDEDAQIQEMESGEQAAFMQQPFLEPTHTRALSVRQAPLAAVGMDGLEKHRLVSRTHSSPAASVLPHPAMDRPLQPGSATGIAYDPLMLKHQCVCGNSTTHPEHAGRIQSIWSRLQETGLLNKCERIQGRKASLEEIQLVHSEHHSLLYGTNPLDGQKLDPRILLGDDSQKFFSSLPCGGLGVDSDTIWNELHSSGAARMAVGCVIELASKVASGELKNGFAVVRPPGHHAEESTAMGFCFFNSVAITAKYLRDQLNISKILIVDLDVHHGNGTQQAFYADPSILYISLHRYDEGNFFPGSGAPNEVRFISLEPHFYLYLSGNCIA
HDAC enzymatic activity (3H-acetic acid released from 3H-histones): HDAC9a-FLAG deacetylated 3H-acetyl-histones
